Data taken from the supplement of paper PMC9112550, “Optimization of the antimicrobial peptide Bac7 by deep mutational scanning” (BMC Biology, 2022).

tested on: Escherichia coli TOP10; experiment: shrunken log2 fold change of peptide-encoding DNA abundance (4.5 h post-induction vs induction); higher = less antimicrobial activity (less host growth inhibition); conditions: time post-induction: 4.5 h; library: site-saturation at positions 5, 18, 19, 20
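Note: peptides expressed intracellularly from a pBAD plasmid library in pooled LB shake-flask culture, induced with 0.3% L-arabinose, DNA abundance read by NGS, three biological replicates, DESeq2 with apeglm shrinkage.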

| Sequence | shrunken log2 fold change |
| --- | --- |
| RRIRIRPPRLPRPRPRPICEPRP | -0.0283 |
| RRIRRRPPRLPRPRPRPPFMPRP | 0.22 |
| RRIRSRPPRLPRPRPRPPNTPRP | 0.158 |
| RRIRNRPPRLPRPRPRPPTFPRP | 0.145 |
| RRIRRRPPRLPRPRPRPTVAPRP | 0.699 |
| RRIRFRPPRLPRPRPRPHALPRP | -0.222 |
| RRIRFRPPRLPRPRPRPERIPRP | -0.352 |
| RRIRWRPPRLPRPRPRPGPGPRP | 0.899 |
| RRIRPRPPRLPRPRPRPQWQPRP | -0.109 |
| RRIRYRPPRLPRPRPRPDVTPRP | -0.00733 |
| RRIRLRPPRLPRPRPRPYNPPRP | -0.454 |
| RRIRDRPPRLPRPRPRPWLKPRP | -0.00783 |
| RRIRVRPPRLPRPRPRPPKNPRP | 0.192 |
| RRIRMRPPRLPRPRPRPYWQPRP | -0.312 |
| RRIRIRPPRLPRPRPRPHSCPRP | -0.0433 |
| RRIRIRPPRLPRPRPRPFWAPRP | -0.0374 |
| RRIRDRPPRLPRPRPRPMVRPRP | 0.152 |
| RRIRHRPPRLPRPRPRPVINPRP | -0.242 |
| RRIRWRPPRLPRPRPRPFMRPRP | 0.276 |
| RRIRCRPPRLPRPRPRPHHCPRP | 0.00372 |
| RRIRSRPPRLPRPRPRPHKIPRP | -0.48 |
| RRIRMRPPRLPRPRPRPWNRPRP | -0.51 |
| RRIRWRPPRLPRPRPRPGTMPRP | -0.153 |
| RRIRKRPPRLPRPRPRPHKNPRP | 0.207 |
| RRIRDRPPRLPRPRPRPVAKPRP | 0.356 |

| Sequence | shrunken log2 fold change |
| --- | --- |
| RRIRKRPPRLPRPRPRPLAVPRP | 0.0855 |
| RRIRLRPPRLPRPRPRPPWRPRP | 0.445 |
| RRIRCRPPRLPRPRPRPGQQPRP | 0.0269 |
| RRIRKRPPRLPRPRPRPWWFPRP | -0.0467 |
| RRIRMRPPRLPRPRPRPRMPPRP | 0.771 |
| RRIRPRPPRLPRPRPRPGATPRP | 0.54 |
| RRIRHRPPRLPRPRPRPFSWPRP | -0.0533 |
| RRIRSRPPRLPRPRPRPQENPRP | -0.0522 |
| RRIRFRPPRLPRPRPRPSTEPRP | -0.112 |
| RRIRSRPPRLPRPRPRPEPHPRP | 0.0658 |
| RRIRSRPPRLPRPRPRPGANPRP | 0.0967 |
| RRIRARPPRLPRPRPRPMHWPRP | 0.548 |
| RRIRFRPPRLPRPRPRPIPCPRP | -0.256 |
| RRIRSRPPRLPRPRPRPREGPRP | 2.98 |
| RRIRQRPPRLPRPRPRPKNYPRP | -0.216 |
| RRIRQRPPRLPRPRPRPGQDPRP | 0.102 |
| RRIRNRPPRLPRPRPRPPPNPRP | 1.04 |
| RRIRMRPPRLPRPRPRPVCAPRP | 0.698 |
| RRIRGRPPRLPRPRPRPNRCPRP | 0.422 |
| RRIRERPPRLPRPRPRPIAHPRP | -0.171 |
| RRIRPRPPRLPRPRPRPYWNPRP | -0.151 |
| RRIRPRPPRLPRPRPRPWQTPRP | -0.0715 |
| RRIRDRPPRLPRPRPRPFANPRP | -0.177 |
| RRIRYRPPRLPRPRPRPHFSPRP | -0.256 |
| RRIRRRPPRLPRPRPRPFGHPRP | 0.0281 |

| Sequence | shrunken log2 fold change |
| --- | --- |
| RRIRWRPPRLPRPRPRPDWCPRP | 0.112 |
| RRIRRRPPRLPRPRPRPILYPRP | 0.143 |
| RRIRLRPPRLPRPRPRPALCPRP | 0.00966 |
| RRIRPRPPRLPRPRPRPWRLPRP | 0.0836 |
| RRIRERPPRLPRPRPRPIHDPRP | 0.0116 |
| RRIRMRPPRLPRPRPRPVLMPRP | 0.229 |
| RRIRQRPPRLPRPRPRPGNIPRP | -0.151 |
| RRIRERPPRLPRPRPRPVMKPRP | -0.236 |
| RRIRGRPPRLPRPRPRPHHDPRP | -0.102 |
| RRIRNRPPRLPRPRPRPFLYPRP | -0.468 |
| RRIRNRPPRLPRPRPRPPGCPRP | 0.109 |
| RRIRFRPPRLPRPRPRPPVTPRP | -0.132 |
| RRIRHRPPRLPRPRPRPWENPRP | 0.0621 |
| RRIRIRPPRLPRPRPRPLGHPRP | -0.425 |
| RRIRYRPPRLPRPRPRPFRMPRP | -0.0929 |
| RRIRYRPPRLPRPRPRPCLQPRP | -0.00663 |
| RRIRVRPPRLPRPRPRPPGMPRP | 0.172 |
| RRIRWRPPRLPRPRPRPGEEPRP | 0.387 |
| RRIRWRPPRLPRPRPRPAVIPRP | 0.0266 |
| RRIRERPPRLPRPRPRPNLYPRP | -0.022 |
| RRIRQRPPRLPRPRPRPTNWPRP | 0.146 |
| RRIRLRPPRLPRPRPRPQVMPRP | -0.0202 |
| RRIRMRPPRLPRPRPRPYMKPRP | -0.0154 |
| RRIRFRPPRLPRPRPRPMEIPRP | -0.298 |
| RRIRQRPPRLPRPRPRPVIWPRP | 0.124 |
